Data reported in patent publication US9284543B2, “Neutral active soluble truncated PH20 polypeptides and uses thereof” (Halozyme, Inc., priority 2008, dated 2016).
Values belong to the molecule of their own block, whether it stands above or below them.

Tests used:
[1] = Microtiter hyaluronidase activity assay with biotinylated-hyaluronic acid; assay type: biochemical; conditions: Table 6, 72 hour post transfection supernatant
[2] = system: CHO-S cells; assay: Western blot analysis of PH20 expression in media and cells after transient expression; assay type: cell-based, Chinese Hamster; conditions: media versus cells
Summary of the method: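 CHO-S cells were transiently transfected with mutant PH20-HZ24 plasmids using GeneJuice and expressed for 48-72 h at 37 °C, 5% CO2. Media and cells were harvested separately, with PI-PLC treatment used to release GPI-anchored protein. Non-reduced samples were blotted with rabbit anti-PH20 (0.5 μg/mL), and a band near 66 kDa was scored as PH20.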

pH 5.5 Activity [1]: 2.0475 Units/ml | pH 7.4 Activity [1]: 2.088 Units/ml
B1: SPAM1-ETEE: C-terminally truncated human PH20, precursor 477 aa (SEQ ID NO:23), mature 442 aa (SEQ ID NO:75) (protein, listed as Homo sapiens)
chain 1: MGVLKFKHIFFRSFVKSSGVSQIVFTFLLIPCCLTLNFRAPPVIPNVPFLWAWNAPSEFCLGKFDEPLDMSLFSFIGSPRINATGQGVTIFYVDRLGYYPYIDSITGVTVNGGIPQKISLQDHLDKAKKDITFYMPVDNLGMAVIDWEEWRPTWARNWKPKDVYKNRSIELVQQQNVQLSLTEATEKAKQEFEKAGKDFLVETIKLGKLLRPNHLWGYYLFPDCYNHHYKKPGYNGSCFNVEIKRNDDLSWLWNESTALYPSIYLNTQQSPVAATLYVRNRVREAIRVSKIPDAKSPLPVFAYTRIVFTDQVLKFLSQDELVYTFGETVALGASGIVIWGTLSIMRSMKSCLLLDNYMETILNPYIINVTLAAKMCSQVLCQEQGVCIRKNWNSSDYLHLNPDNFAIQLEKGGKFTVRGKPTLEDLEQFSEKFYCSCYSTLSCKEKADVKDTDAVDVCIADGVCIDAFLKPPMETEE
chain 2: LNFRAPPVIPNVPFLWAWNAPSEFCLGKFDEPLDMSLFSFIGSPRINATGQGVTIFYVDRLGYYPYIDSITGVTVNGGIPQKISLQDHLDKAKKDITFYMPVDNLGMAVIDWEEWRPTWARNWKPKDVYKNRSIELVQQQNVQLSLTEATEKAKQEFEKAGKDFLVETIKLGKLLRPNHLWGYYLFPDCYNHHYKKPGYNGSCFNVEIKRNDDLSWLWNESTALYPSIYLNTQQSPVAATLYVRNRVREAIRVSKIPDAKSPLPVFAYTRIVFTDQVLKFLSQDELVYTFGETVALGASGIVIWGTLSIMRSMKSCLLLDNYMETILNPYIINVTLAAKMCSQVLCQEQGVCIRKNWNSSDYLHLNPDNFAIQLEKGGKFTVRGKPTLEDLEQFSEKFYCSCYSTLSCKEKADVKDTDAVDVCIADGVCIDAFLKPPMETEE
modifications: HuPH20 precursor 1-477; Mature HuPH20 36-477
Expressed in Media [2]: YES

pH 5.5 Activity [1]: 1.278 Units/ml | pH 7.4 Activity [1]: 1.332 Units/ml
B2: SPAM1-METE: C-terminally truncated human PH20, precursor 476 aa (SEQ ID NO:24), mature 441 aa (SEQ ID NO:76) (protein, listed as Homo sapiens)
chain 1: MGVLKFKHIFFRSFVKSSGVSQIVFTFLLIPCCLTLNFRAPPVIPNVPFLWAWNAPSEFCLGKFDEPLDMSLFSFIGSPRINATGQGVTIFYVDRLGYYPYIDSITGVTVNGGIPQKISLQDHLDKAKKDITFYMPVDNLGMAVIDWEEWRPTWARNWKPKDVYKNRSIELVQQQNVQLSLTEATEKAKQEFEKAGKDFLVETIKLGKLLRPNHLWGYYLFPDCYNHHYKKPGYNGSCFNVEIKRNDDLSWLWNESTALYPSIYLNTQQSPVAATLYVRNRVREAIRVSKIPDAKSPLPVFAYTRIVFTDQVLKFLSQDELVYTFGETVALGASGIVIWGTLSIMRSMKSCLLLDNYMETILNPYIINVTLAAKMCSQVLCQEQGVCIRKNWNSSDYLHLNPDNFAIQLEKGGKFTVRGKPTLEDLEQFSEKFYCSCYSTLSCKEKADVKDTDAVDVCIADGVCIDAFLKPPMETE
chain 2: LNFRAPPVIPNVPFLWAWNAPSEFCLGKFDEPLDMSLFSFIGSPRINATGQGVTIFYVDRLGYYPYIDSITGVTVNGGIPQKISLQDHLDKAKKDITFYMPVDNLGMAVIDWEEWRPTWARNWKPKDVYKNRSIELVQQQNVQLSLTEATEKAKQEFEKAGKDFLVETIKLGKLLRPNHLWGYYLFPDCYNHHYKKPGYNGSCFNVEIKRNDDLSWLWNESTALYPSIYLNTQQSPVAATLYVRNRVREAIRVSKIPDAKSPLPVFAYTRIVFTDQVLKFLSQDELVYTFGETVALGASGIVIWGTLSIMRSMKSCLLLDNYMETILNPYIINVTLAAKMCSQVLCQEQGVCIRKNWNSSDYLHLNPDNFAIQLEKGGKFTVRGKPTLEDLEQFSEKFYCSCYSTLSCKEKADVKDTDAVDVCIADGVCIDAFLKPPMETE
modifications: HuPH20 precursor 1-476; Mature HuPH20 36-476
Expressed in Media [2]: YES

pH 5.5 Activity [1]: 1.584 Units/ml | pH 7.4 Activity [1]: 1.764 Units/ml
B3: SPAM1-TEEP: C-terminally truncated human PH20, precursor 478 aa (SEQ ID NO:22), mature 443 aa (SEQ ID NO:74) (protein, listed as Homo sapiens)
chain 1: MGVLKFKHIFFRSFVKSSGVSQIVFTFLLIPCCLTLNFRAPPVIPNVPFLWAWNAPSEFCLGKFDEPLDMSLFSFIGSPRINATGQGVTIFYVDRLGYYPYIDSITGVTVNGGIPQKISLQDHLDKAKKDITFYMPVDNLGMAVIDWEEWRPTWARNWKPKDVYKNRSIELVQQQNVQLSLTEATEKAKQEFEKAGKDFLVETIKLGKLLRPNHLWGYYLFPDCYNHHYKKPGYNGSCFNVEIKRNDDLSWLWNESTALYPSIYLNTQQSPVAATLYVRNRVREAIRVSKIPDAKSPLPVFAYTRIVFTDQVLKFLSQDELVYTFGETVALGASGIVIWGTLSIMRSMKSCLLLDNYMETILNPYIINVTLAAKMCSQVLCQEQGVCIRKNWNSSDYLHLNPDNFAIQLEKGGKFTVRGKPTLEDLEQFSEKFYCSCYSTLSCKEKADVKDTDAVDVCIADGVCIDAFLKPPMETEEP
chain 2: LNFRAPPVIPNVPFLWAWNAPSEFCLGKFDEPLDMSLFSFIGSPRINATGQGVTIFYVDRLGYYPYIDSITGVTVNGGIPQKISLQDHLDKAKKDITFYMPVDNLGMAVIDWEEWRPTWARNWKPKDVYKNRSIELVQQQNVQLSLTEATEKAKQEFEKAGKDFLVETIKLGKLLRPNHLWGYYLFPDCYNHHYKKPGYNGSCFNVEIKRNDDLSWLWNESTALYPSIYLNTQQSPVAATLYVRNRVREAIRVSKIPDAKSPLPVFAYTRIVFTDQVLKFLSQDELVYTFGETVALGASGIVIWGTLSIMRSMKSCLLLDNYMETILNPYIINVTLAAKMCSQVLCQEQGVCIRKNWNSSDYLHLNPDNFAIQLEKGGKFTVRGKPTLEDLEQFSEKFYCSCYSTLSCKEKADVKDTDAVDVCIADGVCIDAFLKPPMETEEP
modifications: HuPH20 precursor 1-478; Mature HuPH20 36-478
Expressed in Media [2]: YES

pH 5.5 Activity [1]: 2.0745 Units/ml | pH 7.4 Activity [1]: 1.917 Units/ml
B4: SPAM1-EEPQ: C-terminally truncated human PH20, precursor 479 aa (SEQ ID NO:21), mature 444 aa (SEQ ID NO:73) (protein, listed as Homo sapiens)
chain 1: MGVLKFKHIFFRSFVKSSGVSQIVFTFLLIPCCLTLNFRAPPVIPNVPFLWAWNAPSEFCLGKFDEPLDMSLFSFIGSPRINATGQGVTIFYVDRLGYYPYIDSITGVTVNGGIPQKISLQDHLDKAKKDITFYMPVDNLGMAVIDWEEWRPTWARNWKPKDVYKNRSIELVQQQNVQLSLTEATEKAKQEFEKAGKDFLVETIKLGKLLRPNHLWGYYLFPDCYNHHYKKPGYNGSCFNVEIKRNDDLSWLWNESTALYPSIYLNTQQSPVAATLYVRNRVREAIRVSKIPDAKSPLPVFAYTRIVFTDQVLKFLSQDELVYTFGETVALGASGIVIWGTLSIMRSMKSCLLLDNYMETILNPYIINVTLAAKMCSQVLCQEQGVCIRKNWNSSDYLHLNPDNFAIQLEKGGKFTVRGKPTLEDLEQFSEKFYCSCYSTLSCKEKADVKDTDAVDVCIADGVCIDAFLKPPMETEEPQ
chain 2: B4 chain 1
modifications: HuPH20 precursor 1-479; Mature HuPH20 36-479
Expressed in Media [2]: YES

pH 5.5 Activity [1]: 1.6425 Units/ml | pH 7.4 Activity [1]: 2.1825 Units/ml
B5: SPAM1-EPQI: C-terminally truncated human PH20, precursor 480 aa (SEQ ID NO:20), mature 445 aa (SEQ ID NO:72) (protein, listed as Homo sapiens)
chain 1: MGVLKFKHIFFRSFVKSSGVSQIVFTFLLIPCCLTLNFRAPPVIPNVPFLWAWNAPSEFCLGKFDEPLDMSLFSFIGSPRINATGQGVTIFYVDRLGYYPYIDSITGVTVNGGIPQKISLQDHLDKAKKDITFYMPVDNLGMAVIDWEEWRPTWARNWKPKDVYKNRSIELVQQQNVQLSLTEATEKAKQEFEKAGKDFLVETIKLGKLLRPNHLWGYYLFPDCYNHHYKKPGYNGSCFNVEIKRNDDLSWLWNESTALYPSIYLNTQQSPVAATLYVRNRVREAIRVSKIPDAKSPLPVFAYTRIVFTDQVLKFLSQDELVYTFGETVALGASGIVIWGTLSIMRSMKSCLLLDNYMETILNPYIINVTLAAKMCSQVLCQEQGVCIRKNWNSSDYLHLNPDNFAIQLEKGGKFTVRGKPTLEDLEQFSEKFYCSCYSTLSCKEKADVKDTDAVDVCIADGVCIDAFLKPPMETEEPQI
chain 2: LNFRAPPVIPNVPFLWAWNAPSEFCLGKFDEPLDMSLFSFIGSPRINATGQGVTIFYVDRLGYYPYIDSITGVTVNGGIPQKISLQDHLDKAKKDITFYMPVDNLGMAVIDWEEWRPTWARNWKPKDVYKNRSIELVQQQNVQLSLTEATEKAKQEFEKAGKDFLVETIKLGKLLRPNHLWGYYLFPDCYNHHYKKPGYNGSCFNVEIKRNDDLSWLWNESTALYPSIYLNTQQSPVAATLYVRNRVREAIRVSKIPDAKSPLPVFAYTRIVFTDQVLKFLSQDELVYTFGETVALGASGIVIWGTLSIMRSMKSCLLLDNYMETILNPYIINVTLAAKMCSQVLCQEQGVCIRKNWNSSDYLHLNPDNFAIQLEKGGKFTVRGKPTLEDLEQFSEKFYCSCYSTLSCKEKADVKDTDAVDVCIADGVCIDAFLKPPMETEEPQI
modifications: HuPH20 precursor 1-480; Mature HuPH20 36-480
Expressed in Media [2]: YES
